Assay results published in patent publication US20220235138A1, “CAR-T CELLS TARGETING IL-1RAP AND THEIR USE IN ACUTE MYELOID LEUKEMIA (AML)” (ETABLISSEMENT FRANCAIS DU SANG, priority 2019, published 2022).
“And” between values parts separate entries of the source, which are not always exact repeats. Equal entries are not always repeated.

Tests used:
[1] = biological target: T1, IL-1RAP recombinant protein (Homo sapiens, UniProt Q9NPH3); test: ELISA detection of recombinant IL-1RAP protein; type: binding
T1 construct: recombinant fusion protein consisting of the extra cellular part of IL-1RAP (NM_002182.2, NCBI) and the Fc-part of human IgG1; purchased R&D Systems
T1 sequence (Q9NPH3 21-367 limits assumed): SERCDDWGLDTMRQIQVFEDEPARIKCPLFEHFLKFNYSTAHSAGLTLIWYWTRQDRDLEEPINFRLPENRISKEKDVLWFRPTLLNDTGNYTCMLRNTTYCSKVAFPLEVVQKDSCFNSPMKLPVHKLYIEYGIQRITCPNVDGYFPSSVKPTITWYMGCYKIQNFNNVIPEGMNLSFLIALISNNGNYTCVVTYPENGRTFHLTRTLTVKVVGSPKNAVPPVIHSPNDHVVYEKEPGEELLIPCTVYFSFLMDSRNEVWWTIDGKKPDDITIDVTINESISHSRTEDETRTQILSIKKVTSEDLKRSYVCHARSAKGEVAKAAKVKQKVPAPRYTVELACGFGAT
Source text: Anti-human Fc antibody was coated on a bottom of a plastic ELISA plate.

IL-1RAP = test: Immunostaining of FDA standard frozen normal tissue array; type: binding, human; set-up: key to Staining intensity (0 to 3+): negative (0); weak staining (1+); moderate staining (2+); strong staining (3+); settings: for Staining intensity (0 to 3+): replicates
Chain of IL-1RAP (Q9NPH3 21-570): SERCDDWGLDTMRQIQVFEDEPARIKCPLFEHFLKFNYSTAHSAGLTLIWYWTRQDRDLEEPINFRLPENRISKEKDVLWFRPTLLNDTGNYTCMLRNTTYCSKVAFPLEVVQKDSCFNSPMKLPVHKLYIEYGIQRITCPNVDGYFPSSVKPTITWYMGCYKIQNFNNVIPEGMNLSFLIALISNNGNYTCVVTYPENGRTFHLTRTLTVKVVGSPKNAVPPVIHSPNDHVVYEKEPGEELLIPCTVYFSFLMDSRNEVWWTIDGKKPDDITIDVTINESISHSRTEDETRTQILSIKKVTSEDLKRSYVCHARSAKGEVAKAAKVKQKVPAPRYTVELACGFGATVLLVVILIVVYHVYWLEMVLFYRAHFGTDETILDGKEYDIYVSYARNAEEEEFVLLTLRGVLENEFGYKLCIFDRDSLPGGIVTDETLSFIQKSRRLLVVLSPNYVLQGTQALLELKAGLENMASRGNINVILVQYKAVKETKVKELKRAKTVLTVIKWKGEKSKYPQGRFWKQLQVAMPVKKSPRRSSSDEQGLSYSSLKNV
Source text: (§1) FIG. 13: (A) Tissue microarray. Representative #A3C3 staining of an US Food and Drug Administration standard frozen tissue array, including 90 tissue cores (30 organs) of 3 individual donors per organ (US Biomax, Rockville, Md., USA). Immunostaining was detected using the UltraView Universal DAB Detection Kit (Ventana, USA). Images were acquired and analyzed with NDP.view 2.0 software. […] (Scale bars, 100 μm.) High IL-1RAP (KU812) or negative (Raji)-expressing cell lines were respectively used as positive or negative controls. (B) IL-1RAP R&D (red) or #A3C3 (blue) staining of HMEC-1 dermal endothelial cell line. Isotype IgG1 (gray) is depicted as overlay. RFI is provided for both staining.
In order to study specific or non-target tissue binding, FDA standard frozen tissue arrays, including 90 tissue cores (30 organs) of 3 individual donors per organ (US Biomax, Rockville, United States) were incubated as previously described. Immunostaining was detected using UltraView Universal DAB Detection Kit (Ventana, USA). Images were acquired and analyzed with NDP.view 2 software. High IL-1RAP (KU812) or negative (Raji) expressing cell lines were respectively used as positive or negative controls. The staining intensity was graduated as follows: negative (0), weak staining (1+), moderate staining (2+), or strong staining (3+). […]

[2] = system: HMEC-1 endothelial cell line; test: Flow cytometry staining of HMEC-1 dermal endothelial cell line; type: binding, human; settings: microvascular HMEC-1 endothelial cell line
Source text: as §1
In order to predict off-target toxicity, we used the #A3C3 mAb to investigate IL-1RAP expression using a tissue macroarray (TMA) of 30 normal human tissues.

B1: #A3C3: mouse anti-hIL-1RAP monoclonal antibody generated by standard hybridoma technique; VH SEQ ID No 2, VL SEQ ID No 4 (antibody, V domains shown)
VH: MGWSCIILFLVATATGVNSQVQLQQPGAELMMPGASVKVSCEASGYTFTDSWMHWVKQRPGQGLEWIGAIDPSDSYTTYNQKFTGKATLSVDESSNTAYMQLSSLTSEDSAVYYCARYYSGSNYISPFPYWGQGTLVTVSA
VL: MESQIQVFVFVFLWLSGVDGDIVMTQSHKFMSTSVGDRVTITCKASLDVSTAVAWYQQKPGQSPKLLIYSASYRYTGVPDRFTGSGSGTDFTFTISSVQAEDLAVYYCQQHYSPPFTFGSGTNLEIK
modifications: Amino acid sequence of chain H (VH) of murine scFv anti-IL-1RAP; Amino acid sequence of chain K (VL) of murine scFv anti-IL-1RAP
- recognition of IL-1RAP recombinant protein [1]: recognize the IL-1RAP recombinant protein
- Staining intensity (0 to 3+) (IL-1RAP; Adrenal gland): 0
- Staining intensity (0 to 3+) (IL-1RAP; Cerebellum tissue): 0
- Comments: stained epithelial cells (IL-1RAP; Colon): Epithelial cells (~30%);
- Comments: stained inflammatory elements (IL-1RAP; Colon): (100%)
- Staining intensity (0 to 3+) (IL-1RAP; Colon): 3+
- Staining intensity (0 to 3+) (IL-1RAP; Esophagus): 0
- Staining intensity (0 to 3+) (IL-1RAP; Heart): 0
- Staining intensity (0 to 3+) (IL-1RAP; Kidney): 0
- Staining intensity (0 to 3+) (IL-1RAP; Liver): 0
- Comments: stained elements (IL-1RAP; Lung): Few inflammatory elements
- Staining intensity (0 to 3+) (IL-1RAP; Lung): 2+
- Comments: stained endothelial cells (IL-1RAP; Lymph node): ~30% of endothelial cells
- Staining intensity (0 to 3+) (IL-1RAP; Lymph node): 2+ and 1+
- Staining intensity (0 to 3+) (IL-1RAP; Ovary): 0
- Staining intensity (0 to 3+) (IL-1RAP; Pancreas): 1+
- Staining intensity (0 to 3+) (IL-1RAP; Peripheral nerve): 0
- Staining intensity (0 to 3+) (IL-1RAP; Pituitary gland): 0
- Comments: stained cytotrophoblast cells (IL-1RAP; Placenta): Cytotrophoblast cells (~10%)
- Staining intensity (0 to 3+) (IL-1RAP; Placenta): 0
- Comments: stained endothelial cells (IL-1RAP; Prostate): ~10% of endothelial cells
- Staining intensity (0 to 3+) (IL-1RAP; Prostate): 1+ (2×) and 0 (4×)
- Staining intensity (0 to 3+) (IL-1RAP; Salivary gland): 0
- Comments: stained endothelial cells (IL-1RAP; Skeletal muscle 1): ~10% of endothelial cells
- Staining intensity (0 to 3+) (IL-1RAP; Skeletal muscle, first listing): 1+ and 0 (2×)
- Staining intensity (0 to 3+) (IL-1RAP; Skeletal muscle, second listing): 0
- Staining intensity (0 to 3+) (IL-1RAP; Skin): 0
- Comments: stained epithelial cells (IL-1RAP; Small intestine): Epithelial cells (~30%);
- Comments: stained inflammatory elements (IL-1RAP; Small intestine): (100%)
- Staining intensity (0 to 3+) (IL-1RAP; Small intestine): 2+ and 0 and 1+
- Staining intensity (0 to 3+) (IL-1RAP; Smooth muscle): 0
- Staining intensity (0 to 3+) (IL-1RAP; Spinal cord): 0
- Comments: stained elements (IL-1RAP; Spleen): Necrotic elements
- Staining intensity (0 to 3+) (IL-1RAP; Spleen): 3+
- Comments: stained epithelial cells (IL-1RAP; Stomach 1): cells <10%
- Comments: stained gastric mucosa cells (IL-1RAP; Stomach 1): (~10%); few epithelial
- Staining intensity (0 to 3+) (IL-1RAP; Stomach): 1+ and 0 (2×)
- Staining intensity (0 to 3+) (IL-1RAP; Testis): 0
- Staining intensity (0 to 3+) (IL-1RAP; Thyroid gland): 0
- Staining intensity (0 to 3+) (IL-1RAP; Ureter): 0
- Staining intensity (0 to 3+) (IL-1RAP; Uterine cervix): 0
- recognition of cell surface IL-1RAP on HMEC-1 [2]: not recognized
